The target of assay [1] is Human IL-11, endogenously produced by TGFβ1-stimulated human cells (human) (UniProt P20809). As to the kind of experiment: cell-based or functional assay.
For assay [2], the target named is Mouse IL-11, endogenously produced by TGFβ1-stimulated mouse atrial fibroblasts (mouse) (UniProt P47873). As to the kind of experiment: cell-based or functional assay.
The target in assay [3] is T1, Human IL-11Rα endogenously expressed on primary human cells (human, UniProt Q14626 23-422).
T1 sequence (looked up): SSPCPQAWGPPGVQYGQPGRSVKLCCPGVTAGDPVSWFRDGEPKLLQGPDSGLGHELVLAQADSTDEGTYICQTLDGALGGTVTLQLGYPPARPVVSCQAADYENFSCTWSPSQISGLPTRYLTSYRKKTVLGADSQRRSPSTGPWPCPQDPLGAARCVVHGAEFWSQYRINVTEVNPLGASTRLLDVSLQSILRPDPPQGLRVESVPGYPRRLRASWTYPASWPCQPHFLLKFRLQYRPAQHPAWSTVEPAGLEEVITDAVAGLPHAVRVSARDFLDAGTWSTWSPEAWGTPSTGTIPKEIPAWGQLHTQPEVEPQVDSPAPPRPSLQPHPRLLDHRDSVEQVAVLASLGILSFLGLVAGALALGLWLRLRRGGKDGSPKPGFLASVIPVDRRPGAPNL
As to the kind of experiment: cell-based or functional assay.

The target of assay [4] is T2, IL-11Rα as used in the Biacore kinetics of Example 14 (UniProt Q14626 23-363, limits assumed).
T2 sequence (looked up): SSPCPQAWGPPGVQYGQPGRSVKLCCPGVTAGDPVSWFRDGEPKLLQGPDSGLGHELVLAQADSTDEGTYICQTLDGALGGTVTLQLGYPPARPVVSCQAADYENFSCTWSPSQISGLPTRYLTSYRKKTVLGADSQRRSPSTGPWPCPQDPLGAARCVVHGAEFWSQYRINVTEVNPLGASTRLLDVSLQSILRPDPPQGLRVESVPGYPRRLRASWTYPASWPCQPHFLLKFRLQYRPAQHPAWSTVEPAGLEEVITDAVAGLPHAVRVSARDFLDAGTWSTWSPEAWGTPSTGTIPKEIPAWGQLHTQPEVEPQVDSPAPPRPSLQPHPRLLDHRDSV
As to the kind of experiment: SPR (Biacore T200), multi-cycle kinetics, 25 C, HBS-P+ pH 7.4 with 0.1% BSA. The procedure:
The six antibodies were assessed by multi-cycle kinetics analysis at a final concentration of 1 μg/ml, run at 25° C. with HBS-P+ running buffer (pH 7.4) containing 0.1% BSA using a Biacore T200 instrument.
The relative KD was calculated by dividing the KD of the humanised variant by that of the 9A7 antibody assayed in the same experiment. All six humanised antibodies bound to IL-11R within two-fold of 9A7 (SEQ ID NO:7 and 13).
For orientation: In SPR one partner is held on a chip, and binding of the other changes the refractive index at the surface.

For assay [5], the target named is T1, Human IL-11Rα endogenously expressed on …. As to the kind of experiment: cell-based or functional assay. The source holds these as a separate data set.
Assay [6] has the same target. As to the kind of experiment: cell-based or functional assay. The source holds these as a separate data set.

Sequence of Human IL-11, endogenously produced by TGFβ1-stimulated human cells (human) (P20809 22-199 limits assumed): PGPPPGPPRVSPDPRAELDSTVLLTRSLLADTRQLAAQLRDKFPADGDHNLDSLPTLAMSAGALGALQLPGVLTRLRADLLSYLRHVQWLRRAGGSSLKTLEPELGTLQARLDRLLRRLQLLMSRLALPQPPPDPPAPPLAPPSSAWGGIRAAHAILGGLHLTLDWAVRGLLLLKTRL
Sequence of Mouse IL-11, endogenously produced by TGFβ1-stimulated mouse atrial fibroblasts (mouse) (P47873 22-199 limits assumed): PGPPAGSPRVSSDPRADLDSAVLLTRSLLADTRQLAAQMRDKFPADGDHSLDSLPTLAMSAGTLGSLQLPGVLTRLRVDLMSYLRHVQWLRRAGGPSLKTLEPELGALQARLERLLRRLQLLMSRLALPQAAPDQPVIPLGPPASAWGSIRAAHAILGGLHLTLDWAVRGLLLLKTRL

Turning to “Commercial monoclonal mouse anti-IL-11 antibody (Monoclonal Mouse IgG2A; Clone #22626; Catalog No. MAB218; R&D Systems)”, the fold change in percentage of αSMA-positive (activated) human atrial fibroblasts against unstimulated cultures, TGFβ1 5 ng/ml, 24 h in assay [1] came to 0.89 fold. This molecule had a fold change in percentage of αSMA-positive (activated) mouse atrial fibroblasts against unstimulated cultures, TGFβ1, 24 h in assay [2] of 1.44 fold.

B1: Humanised BSO-9A7 variant VH3/VL3 (antibody, V domains shown)
VH: QVQLVQSGAEVKKPGASVKVSCKASGYTFTNYWMHWLRQRPGQGLEWIGNIGPSDSKTHYNQKFKDRATLTVDKSTSTAYMELSSLRSEDTAVYYCARGDYVLFTYWGQGTLVTVSS
VL: DIVLTQSPATLSLSPGERATLSCRASQSISNNLHWYQQKPGQAPRLLIKYASQSISGIPARFSGSGSGTDFTLTISSLEPEDFAVYFCQQSYSWPLTFGQGTKLEIK
notes: Variable domains only
With B1, the “IC50 of inhibition of MMP2 secretion, human hepatic stellate cells + TGFβ1 5 ng/ml (panel 'VH3/VL3')” value in assay [3] was 0.0233 µg/mL. In assay [4], the dissociation constant (Kd) amounted to 3.61 nM, the koff worked out at 0.000751 s⁻¹, the kon turned out to be 208000 M⁻¹ s⁻¹ and the “relative KD (KD divided by KD of 9A7)” value was 0.84 ratio to 9A7. Also, the “IC50 of inhibition of TIMP1 secretion, primary human lung fibroblasts + TGFB1 5 ng/ml (panel 'VH3/VL3')” value in assay [5] was 0.0274 µg/mL. In addition, the “IC50 of inhibition of MMP2 secretion, primary human atrial fibroblasts + TGFβ1 (panel 'VH3/VL3')” value in assay [6] amounted to 0.0326 µg/mL.

B2: Humanised BSO-9A7 variant VH3/VL4 (antibody, V domains shown)
VH: QVQLVQSGAEVKKPGASVKVSCKASGYTFTNYWMHWLRQRPGQGLEWIGNIGPSDSKTHYNQKFKDRATLTVDKSTSTAYMELSSLRSEDTAVYYCARGDYVLFTYWGQGTLVTVSS
VL: DIVLTQSPATLSLSPGERATLSCRASQSISNNLHWYQQKPGQAPRLLIKYASQSISGIPARFSGSGSGTDFTLTISSLEPEDFAVYYCQQSYSWPLTFGQGTKLEIK
notes: Variable domains only
Take B2: in assay [4], the Kd was determined as 3.71 nM, the koff was determined as 0.000747 s⁻¹, the kon is 201000 M⁻¹ s⁻¹ and the “relative KD (KD divided by KD of 9A7)” value was 0.86 ratio to 9A7.

B3: Humanised BSO-9A7 variant VH4/VL3 (antibody, V domains shown)
VH: QVQLVQSGAEVKKPGASVKVSCKASGYTFTNYWMHWLRQRPGQGLEWIGNIGPSDSKTHYNQKFKDRVTMTVDKSTSTAYMELSSLRSEDTAVYYCARGDYVLFTYWGQGTLVTVSS
VL: DIVLTQSPATLSLSPGERATLSCRASQSISNNLHWYQQKPGQAPRLLIKYASQSISGIPARFSGSGSGTDFTLTISSLEPEDFAVYFCQQSYSWPLTFGQGTKLEIK
notes: Variable domains only
For the molecule B3, in assay [4], binding was characterised by a dissociation constant (Kd) of 5.57 nM, the koff was 0.000992 s⁻¹, the kon is 178000 M⁻¹ s⁻¹ and the “relative KD (KD divided by KD of 9A7)” value was 1.3 ratio to 9A7. Moreover, the “IC50 of inhibition of MMP2 secretion, primary human atrial fibroblasts + TGFβ1 (panel 'VH4/VL3')” value in assay [6] was 0.0647 µg/mL.

B4: Humanised BSO-9A7 variant VH3/VL2 (antibody, V domains shown)
VH: QVQLVQSGAEVKKPGASVKVSCKASGYTFTNYWMHWLRQRPGQGLEWIGNIGPSDSKTHYNQKFKDRATLTVDKSTSTAYMELSSLRSEDTAVYYCARGDYVLFTYWGQGTLVTVSS
VL: DIVLTQSPATLSLSPGERATLSCRASQSISNNLHWYQQKSGQAPRLLIKYASQSISGIPARFSGSGSGTDFTLTISSLETEDFAVYFCQQSYSWPLTFGQGTKLEIK
notes: T0003 heads the columns 'Heavy chain' and 'Light chain', but the entries are variable domains
With B4, in assay [4], the Kd was found to be 3.63 nM, the koff amounted to 0.000801 s⁻¹, the kon stood at 221000 M⁻¹ s⁻¹ and the “relative KD (KD divided by KD of 9A7)” value is 0.85 ratio to 9A7.

B5: Humanised BSO-9A7 variant VH4/VL2 (antibody, V domains shown)
VH: QVQLVQSGAEVKKPGASVKVSCKASGYTFTNYWMHWLRQRPGQGLEWIGNIGPSDSKTHYNQKFKDRVTMTVDKSTSTAYMELSSLRSEDTAVYYCARGDYVLFTYWGQGTLVTVSS
VL: DIVLTQSPATLSLSPGERATLSCRASQSISNNLHWYQQKSGQAPRLLIKYASQSISGIPARFSGSGSGTDFTLTISSLETEDFAVYFCQQSYSWPLTFGQGTKLEIK
notes: Variable domains only
Take B5: in assay [4], the Kd was 5.67 nM, the koff amounted to 0.000932 s⁻¹, the kon was 164000 M⁻¹ s⁻¹ and the “relative KD (KD divided by KD of 9A7)” value is 1.32 ratio to 9A7. Moreover, the “IC50 of inhibition of MMP2 secretion, primary human atrial fibroblasts + TGFβ1 (panel 'VH4/VL2')” value in assay [6] was 0.0111 µg/mL.

B6: Humanised BSO-9A7 variant VH4/VL4 (antibody, V domains shown)
VH: QVQLVQSGAEVKKPGASVKVSCKASGYTFTNYWMHWLRQRPGQGLEWIGNIGPSDSKTHYNQKFKDRVTMTVDKSTSTAYMELSSLRSEDTAVYYCARGDYVLFTYWGQGTLVTVSS
VL: DIVLTQSPATLSLSPGERATLSCRASQSISNNLHWYQQKPGQAPRLLIKYASQSISGIPARFSGSGSGTDFTLTISSLEPEDFAVYYCQQSYSWPLTFGQGTKLEIK
notes: Variable domains only; also called printed once as VH4/VH4
As for B6, the “IC50 of inhibition of MMP2 secretion, human hepatic stellate cells + TGFβ1 5 ng/ml (panel 'VH4/VL4')” value in assay [3] was found to be 0.00315 µg/mL. For the same molecule, in assay [4], the Kd was 5.55 nM, the koff turned out to be 0.000781 s⁻¹, the kon turned out to be 141000 M⁻¹ s⁻¹ and the “relative KD (KD divided by KD of 9A7)” value was 1.29 ratio to 9A7. Besides, the “IC50 of inhibition of TIMP1 secretion, primary human lung fibroblasts + TGFB1 5 ng/ml (panel 'VH4/VL4')” value in assay [5] worked out at 0.00419 µg/mL.

Usually Kd stands for the concentration at which binding is half-saturated. A low value points to higher affinity. The term koff denotes a measure of how fast the partners let go of each other. A lower koff goes with a long-lived complex. The kon is the rate constant with which the complex forms. Lower therefore signals slower complex formation.

Values taken from patent US20190389957A1 (SINGAPORE HEALTH SERVICES PTE, published 2019).
